This series concerns the molecule itself. As to the kind of experiment: SDS-PAGE, no laddering in the reduced lane.

B1: JIB34 (bispecific antibody)
heavy: QVQLQQPGAELVKPGASVKMSCKASGYTFTNYWINWVKQRPGQGLEWIGDIYPGGGITNYNEKFKTKATLTLDTSSSTVYMQLSSLTSEDSAVYYCSRSYGKYFDYWGQGTTLIVSSASTKGPSVFPLAPSSKSTSGGTAALGCLVKDYFPEPVTVSWNSGALTSGVHTCPAVLQSSGLYSLSSVVTVPSSSLGTQTYICNVNHKPSNTKVDKKVEPKSSDKTHTGGHHHHHH
light: DIKMTQSPSSMYASVGERVTITCKASQDIKSYLTWYQKKPWKSPRTLIFYSTRLADGVPSRFSGSGSGQDFSLTISSLESDDTATYYCLQHDESPFTFGGGTKLEIKRTVAAPSVFIFPPSDEQLKSGTASVVCLLNNFYPREAKVQWKVDNALQSGNSQESVTEQDSKDSTYSLCSTLTLSKADYEKHKVYACEVTHQGLSSPVTKSFNRGESGGGGSGGGGSGGGGSDIQMTQSPSSLSASVGDRVTITCRASQDIRNYLNWYQQKPGKAPKLLIYYTSRLESGVPSRFSGSGSGTDYTLTISSLQPEDFATYYCQQGNTLPWTFGQGTKVEIKGGGGSGGGGSGGGGSEVQLVESGGGLVQPGGSLRLSCAASGYSFTGYTMNWVRQAPGKGLEWVALINPTKGVSTYNQKFKDRFTISVDKSKNTAYLQMNSLRAEDTAVYYCARSGYYGDSDWYFDVWGQGTLVTVSS
notes: HP6017 Fab (bDS) with HzUCHT1 scFv on the light chain; also called anti-Fc HP6017 HzUCHT1 IgR
As to B1, the binding result is on record as “no binding”.

Values taken from patent publication US20250243274A1 (JIBE THERAPEUTICS, published 2025).
